Assay results reported in US20150233949.

B1: human SIRT3-HA (protein)
chain: MAFWGWRAAAALRLWGRVVERVEAGGGVGPFQACGCRLVLGGRDDVSAGLRGSHGARGEPLDPARPLQRPPRPEVPRAFRRQPRAAAPSFFFSSIKGGRRSISFSVGASSVVGSGGSSDKGKLSLQDVAELIRARACQRVVVMVGAGISTPSGIPDFRSPGSGLYSNLQQYDLPYPEAIFELPFFFHNPKPFFTLAKELYPGNYKPNVTHYFLRLLHDKGLLLRLYTQNIDGLERVSGIPASKLVEAHGTFASATCTVCQRPFPGEDIRADVMADRVPRCPVCTGVVKPDIVFFGEPLPQRFLLHVVDFPMADLLLILGTSLEVEPFASLTEAVRSSVPRLLINRDLVGPLAWHPRSRDVAQLGDVVHGVESLVELLGWTEEMRDLVQRETGKLDGPDK
B2: SIRT3 (protein)
chain: B1 chain

Legend:
[1] = biological target: mouse cytochrome c with a C-terminal Flag tag
Chain of mouse cytochrome c with a C-terminal Flag tag (chain, as listed by the source): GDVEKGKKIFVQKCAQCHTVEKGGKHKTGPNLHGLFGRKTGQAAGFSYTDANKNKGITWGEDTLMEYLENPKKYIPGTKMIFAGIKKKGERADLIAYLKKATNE

Protein	acetylation of residues K40 and K74 of cytochrome c (mass spectrometry) [1]	deacetylation assay (Western blot) (endogenous cytochrome c)
B1	when hSIRT3 was cotransfected with cytochrome c, acetylation of residues K40 and K74 of cytochrome c was no longer detected	
B2		SIRT3 can deacetylate endogenous cytochrome c
